Assay results: the DeepSol protein solubility set

Assay: soluble on expression in E. coli; label from the status in PepcDB or PDB records

| Sequence | soluble on expression in E. coli |
| --- | --- |
| MSLDVSDDADRLQTLLYSSYSADVVRQLERPLLDDGVPLMRMAASAVARVTLSLLDDEDLDVEDARVTVLAGAGDNGGDGLYAGAELAREGAQVTAVAVGRSLHEDAFREFVRAGGRVLVLDPAADIPGCTSGFSAGEAGERLQAAVECARGAHVVLDAMTGIGVAGALRGVAGTLASSLGMDGVLPDKPALPNNDPSADLPLVVAVDAPSGVGVDDGSLPGPYIPADVTVTFGAMKPCAMVPPASYACGRITLVDFGFDVDDAVPFAEMTDGDFVADSVRLPSLADGKYSRGVVGLVTGSARYPGAAVLSARAAACANVGMVRYLGPQRAQDMILAVLPEAVLGKGRVQSWVVGSGVPAEGDVASGDDMQRATIAALLDHYALEDGDGSRNERAEGMPPIVVDAGALDLLPCHVVPQVVITPHAGELAALLNRLDADMADVVSRQWVEARPLRAALRAHELTGATVLLKGAVTIVVGADGDGNTRIILSGRAPAWMATAGSGDVLAGVLGALLAQQDDMLSDDPALVPEVAAAAAYMHGLAGAMASGSEQRGWHRPHLYGHAGKTPASAIGHPIVAGDVVAAVPRAFGELLREGHHHHHH | soluble |
| MRILWILPYSPWPTTSGGKTRQYHLLRSLAARGHRITVLLHSKQPVSAEDRQALEPFLERLVVLPRRPLRSLSTLLAALFAPYPLLASVNGLSAELQRTATELLREPWDVVQVEHSYSFQPYERPLRDAGQPFVLTEHNVESSLGAATYDRLPGWALPFVRYDQWRYRRWERRVMSQAAAVVAVTEKDARQLGAMLGRPVPVVVNGVDCEHFATARPTPEAQRVLFLGNYEYAPNVDAVEWMLDEILPRVWAHCPEARMSVCGYALPAEWAQRWSDPRIEWQGFVPDLLQLQSSSSVFLAALRHGGGSKLKVLEALAAGLPLASTAQGVSGLELRDGEDYLGGESAEQLANAVVRLLQDPAQARALGENGRAYVRRAHDWSVAASQLEQVYAGLAEGAPACA | not soluble |
| MAHHHHHHMNLRSLVPSDKQLTEEQQSHIQDLQDEIDEIWSRRGDYKIDDKAWEHMPLFMETITEEDMQKNADCAALASIAYDEVPPEDIAESRKQHGNRAIQLALNPEQVNKENLARAAAHCYTEGLNAKCKDPILNSQLYANRSLAQYIIQNYGHGLEDAQRAIILNPDYSKAYYRAARCAERVKKYDLAIDLLSKGRCTNPPPEGIALEEFEELERVCREGMKKFQKKEKEDSIRTRVRAAETSSLMRALTSYGIRLSPTPEVSSEQMGVYGQHQPYFDAVGLLHVPILFMYDEYQQTDFMQDVTCDVSTAELLDEIMPFPWDDRGRYRHMNEVVVFFKIDDGVKMAEYYEVDLSWPLMEVFRSESYKMPMLLPVLHVVCRSSELLQHWKPQKPR | not soluble |
| GPGSMYCHAGVPSTSPSPTDFSEVHKILCGHIKQGNNFSVAAAVALEPLHGSSEFWRTCGYRSGIVSALLASSLGVQRETDQLSHLEPMTVADVYAMLRHVVDENAHLRQIIARLESGECDPDDGSGGITSSTERLRSLISEGYDALTGRSSPCMGEYDCGQTPGKWKTCSNGAAGTKRRRDSPEVTEWAYVRPESPVPASETLSPAANSGDDTVDEAEQNNALDVLEQLPALPGTTRTVSSFDAVGEMVNRGAGGPSLHPTNPSEFRVGSERGSTIETHSSSEVSNFANVGVGTSSGKQKRYKFSASEDEAIIKGLARFTKGQQRFQQIYYAYRSVWHPARTVSQLYDHWRGTLRYKVIQQQGYRGKNSVAARSPEKASNMENNE | not soluble |
| MSLKPVVVMTQTNDMQSDLVSIIHKPFIDIKPLNFDIHLLNQRYDWLIFSSKNAVKFFYKYLKGINVDNIAVIGSKTAQYCESLGIRVDFMPNDFSQEGFLKSFNQTNQKILLPSSELARPLLLAALSKDNEVVKIDLYTSVPNKQNIQDVKEMIEHQQIDALTFSSSSAVRYYFNEGFVPKFKSYFAIGEQTARTIKTYQQPVTIAEIQTLESLIEKILESRGEGHHHHHH | soluble |
| MSSDANSDDPFSKPIVRKRFQATLAQQGIEDDQLPSVRSSDSPDVPDTPDVPVNQLSSPPLSLPETLSEGNAETNLSDDSEPEMLSQSSTSSLNRRMEDSAIDPSRGTRKSQSRGFDYDPAGERTTAPVQKKKKDEIDMGGAKFFPKQEKKHVYTHKWTTEEDDEDEKTISSSSNRYSSRPNQPAVSARPRQPVYATTSTYSKPLASGYGSRVRHIKEANELRESGEYDDFKQDLVYILSSLQSSDASMKVKCLSAISLAKKCVSPDFRQFIKSENMTKSIVKALMDSPEDDLFALAASTVLYLLTRDFNSIKIDFPSLRLVSQLLRIEKFEQRPEDKDKVVNMVWEVFNSYIEKQEVGGQKVSFDMRKESLTPSSLIIEALVFICSRSVNDDNLKSELLNLGILQFVVAKIETNVNLIADNADDTYSILILNRCFRILESSSVFHKKNQAFLISHRSNILISSLAKFLQVILDRVHQLAEEEVKKYISCLALMCRLLINISHDNELCCSKLGQIEGFLPNAITTFTYLAPKFGKENSYDINVMMTSLLTNLVERCNANRKVLIAQTVKMVIPGHDVEEVPALEAITRLFVYHESQAQIVDADLDRELAFDEGGCGDEEEEEEGGDESSDEDGVRKDGRLDRNKMDRMDQVDVVHALQQVMNKASAHMEGSVIASYHALLVGFVLQQNEDHLDEVRKHLPGKNFQNMISQLKRLYDFTKATMAKRVESNSGFRAIERVIEYLERLE | not soluble |
| MNFEDVFREFGELWYDIEFVLTTVIKTKNVTPILTLSGEFCVPGIHALYNIFHIMISVLRIFQKVKHDTWHLVTDYVNILETRLKPFERTPCFITNTALETIIQELCEYWRMLENVPCKDIRSIEGARFTENDWKNELIRIGLSDIFPELVEFFDAGYQVLLNIAQNGDTLKTSDLICHLESTQAFCFSSRFKFLEVASDIQQGIYPKFRNSVNVFIGIASKSESLLPHLKARSRYEGILSAMQVDKQLVPPPIQICHKLIIDAETVSNPTPVPQQLEKKTENCSECSDVRMEMYTVKDVLQNVQKQLKNMQQNSEQFETKLVASDNKTKNFEKQLEDERRKNNKHLESSRKTLISKNEQLEALKRRATALSNCQAENQTLKFKIAEHHDLEKQLNISNKDVTQARDQLSGQISELEIQLKSELKNVEHLNKEHKKAIDLANEISKLKTEIERETSISKQLEKEISQLRTETDEMNIVITQSLEMENLQLRDVTKKFETENASLLKTNQQLSIQNEEQKRLIQVLLEKQQTAPSSSDFPVPSTQMTDNEENSRQQLWKYQKIKDSFRDGMKLRKAEAMVKKLTSLDRDLGVHQMAHRELENFKKLTSYYLQAIEMNIPKIKNNGSSDLEQLPEAPKFSNEFMRFYRNATGKQPLTSSSSSSANPRSTHIEGSSISTMPSTSSRGNVQHHSGSAVRGQSITPTGLSQVPMSPRKLFSQPDIVTASVPSTELDDTECAICLDEMTNFKETIKCECRRRFHLKCATKWLNEKRECPTCRKLLLNPADYPPLN | not soluble |
| MGRVYYINSHGTLSRHENTLRFENAEVKKDIPVEDVEEIFVFAELSLNTKLLNFLASKGIPLHFFNYYGYYTGTFYPRESSVSGHLLIKQVEHYLDAQKRLYLAKSFVIGSILNLEYVYKISADTYLNKVKETNSIPELMSVEAEFRKLCYKKLEEVTGWELEKRTKRPPQNPLNALISFGNSLTYAKVLGEIYKTQLNPTVSYLHEPSTKRFSLSLDVAEVFKPIFVDNLIIRLIQENKIDKTHFSTELNMTFLNEIGRKVFLKAFNELLETTIFYPKLNRKVSHRTLIKLELYKLIKHLLEEEVYLPLNYGGLK | soluble |
| MAAMITPPGAGVKDKKRAILEATLAVLRERGLSGLKMEEVARRAEVGKGTIYLYFRDKRDLLKALVEERTWAFYREVEEVVRRKAPFFVRLEEVLRRRLAWVQEWRGLWAAVAREAMDDPTPWLKGLHEHYLRLLEELLRSGQSEGAVRTGLSPRATAAVIAAMGCTPSLEVEAYLEHLMEVLRKGVEP | soluble |
| MVWFFFSCDEYNEEILKTNSGYWKETVSNTPIIGKWITSNGVKIGEKQVLVFQSYENINGSKSDWVMHVYQPTFLPPNQVIFRIYDV | soluble |
| AMKNYYSSNPTFYLGIDCIIFGFNEGEISLLLLKRNFEPAMGEWSLMGGFVQKDESVDDAAKRVLAELTGLENVYMEQVGAFGAIDRDPGERVVSIAYYALININEYDRELVQKHNAYWVNINELPALIFDHPEMVDKAREMMKQKASVEPIGFNLLPKLFTLSQLQSLYEAIYGEPMDKRNFRKRVAEMDFIEKTDKIDKLGSKRGAALYKFNGKAYRKDPKFKL | soluble |
| MGSDKIHHHHHHSCDNKGDYWGAMESSKATLTLERICDMATLSQDSVELLSNILGMNTEELYRTDVVMIGKVTSEETGFYQYPRFLIAKDREMKEVLTEAYVHRDTEGTFYAFLESNMLPVGETYYCAMVDYNYGYNGRPGLLDHVLGGNTRGERYSEVKPFRLSGLPRLVVHDAHFTGYSFYLSAEVRFKSNGGIIEQGACYSSTKRIPTVDDQKTLARETRNYDYSFLEVEVTDLLPNTHYYIRPYVTTEEGTGYGPVVEFTTEPGTEPIIDYFTMYIDTDRSVNLYATFYIDNYQITHYGYSYGIYSPETGTVTDEQKIEVPLEDNHGQQLSKVITGLRPGILYAFRVYAENGVGVTYSGYQTVKIPVE | not soluble |
| MSLNIIRLLAESLPRISDGNENTDVWVNDMKFKMAYSFLNDDIDVIERELEQTVRSDYPLLSEAGLHLLQAGGKRIRPVFVLLSGMFGDYDINKIKYVAVTLEMIHMASLVHDDVIDDAELRRGKPTIKAKWDNRIAMYTGDYMLAGSLEMMTRINEPKAHRILSQTIVEVCLGEIEQIKDKYNMEQNLRTYLRRIKRKTALLIAVSCQLGAIASGADEKIHKALYWFGYYVGMSYQIIDDILDFTSTEEELGKPVGGDLLQGNVTLPVLYALKNPALKNQLKLINSETTQEQLEPIIEEIKKTDAIEASMAVSEMYLQKAFQKLNTLPRGRARSSLAAIAKYIGKREGHHHHHH | soluble |
| SDRAMMNAFKEITTMADRINLPRNIVDRTNNLFKQVYEQKSLKGRANDAIASACLYIACRQEGVPRTFKEICAVSRISKKEIGRCFKLILKALETSVDLITTGDFMSRFCSNLCLPKQVQMAATHIARKAVELDLVPGRSPISVAAAAIYMASQASAEKRTQKEIGDIAGVADVTIRQSYRLIYPRAPDLFPTDFKFDTPVDKLPQL | soluble |
| MTTHLNPPQEAPYMKNATFYLLDNDTTVNGLSAVEQLVCEIAAERWRAGKRVLIACEDEKQAIRLDEALWARPAESFVPHNLAGEGPRGGAPVEIAWPQKRNSSPRDILISLRTSFADFATAFTEVVDFVPYEETLKQLARERYKAYRVAGFNLNTATWK | not soluble |
| MGSDKIHHHHHHMAERLGILVGGGPAPGINSVISSVTIEAINNGLEVIGIYDGFKHLVEGKTNMVKKLSIEDVSRIHIEGGSILRTSRVNPAKSEETLEKTVQTLKKLGIKYLVTIGGDDTAFSASKVCERSKGEIKVVHVPKTIDNDLPLPENMPTFGFETARHVATELVYNLMQDSRTTNRWYFVAMMGREAGHLALGVGKAASATITIIPEEFKEGVTLEEVCDVLDGAILKRKLMGRDDGVAVIGEGIAEKMDPEELANIPGVIVEKDPHGHLRLAEIPLATILKRAIERRYAERGERIHIVDVTIGYELRSARPIPFDIVYTRTLGYGAVRFLLGDYSDLPGGMVCVVGGRIKILPFDAFMDPKTGRTKVRVVDVRSEDYRVARKYMIRLEKKDLEDPETLEKLAKLAKMEPEEFKKKYWHTTELP | not soluble |
| MKDLKLDEHTGLVLEGGGMRGVFTCGVLDYLMDHDIRFPYAIGVSAGACNGLSYASRQRGRAKFSNIDLLEKYNYIGLKHLLRKRNILDFDLLFNEFPEHILPYDYDTYFASPERFVMVTTNCMTGEANYFEEKRDKSRVIDIVRASSSLPFVCPVTYVDGVPMLDGGIVDSIPLQRAIADGYTRNVVILTRNRGYRKDTKDIRIPSFVYRKYPKLREALSRRCAVYNEQLEMVEQMEDEGKIIVIRPQKPVMVDRIERDVQKLTEFYEEGYDCARNLFEF | soluble |
